Experiment: yeast display, Sf9 membrane polyspecificity reagent, FACS + sequencing; frameworks hold sequencing errors
Outline: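 Galactose induction of a Saccharomyces cerevisiae BJ5465 synthetic nanobody display library ran 36–48 hours. The cells were then stained for 1 hour at 4 °C with 10% biotinylated, detergent-solubilized Sf9 membrane reagent, pulled down on streptavidin microbeads and FACS-sorted into low and high (top ~1%) gates on expression and reagent-binding fluorescence. Labels for polyreactivity follow the gate of origin.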

| Sequence | polyreactivity (PSR sort gate) |
| --- | --- |
| QVQLVESGGGLVQAGGSLRISCAASGSTFYRYPMAWYRQAPGKERELVAAISGSGGRTYYADSVKGRFTISRDNAKNTVYLQMNSLKPEYTAVYYCATRFGQRSDYWGQGTQVTVSS | high polyreactivity |
| QVQLVESGGGLVQAGGSLRISCAASGSTFYYNAMGWYRQAPGKERELVAAISYSGGRTYYADSLTGRFTISRDNAKNTVYLQMNSLKPEDTAVYYCATGQPILALRYAYGYWGQGTQVTVSS | low polyreactivity |
| QVQLVESGGGLVQAGGSLRISCAASGSTVRYYAMGWNRQAHGKERHLVARNTSRAGRTYYADSVKGRFTISRDNAKNTVYLQMNSLKPEDTAVYYCAADQSGFRWKWYIRYDYWGQGTQVTVSS | high polyreactivity |
| QVQLVESGGGLVQAGGSLRISCAASGTNNRTYAMGWYRQSTGKERDLVAAISKRGGSTYYADSVKGRFTISRDKAKNTVYLQMNSLKPEDTEVYYCAKKSTPGYGTSNDSWVQGTQVTVSS | high polyreactivity |
| QVQLVESGGGLVQAGGSLRISCAASVSTFWYYAMGWYIQAPRKERELVAPISRTGGGTYYADSVKGRFTISRDNAKNSVYLQMNSLKPEDTAVYYCARGSVYSDAQIYDYWGQGTQVTVSS | low polyreactivity |
| QVQLVESGGGLVQAGGSLRISCADSGITYSANAMGWYRQAPGKERELVAAITGSGGGTYYADSVKGRFTISRDNAKNTVYLQMNSLKPEDTAVYYCKADNYYYSGFDYWGQGTQVTVSS | low polyreactivity |
| QVQLVESGGGLVQAGGSLRISCAPSGFTFIYYDMGWYRQAPGKERELVAAINRGGNTYYADSVKGRFTISRDNAKNTVFLLMNSLKPEDTAVYYCNARSYRRGTWYNSWGQGTKVTVSS | high polyreactivity |
| QVQLVESGGGLVQAGGSLRISCAPSGIIFTDYAMGWYRQAPVKERELVAAISSGGGYTYYADSVKGRFTISRDNAKNTVYLQMISLKPEDTAVYYCAAEGYLISGAGDYLYDYYLGQGTQVTVSS | high polyreactivity |
| QVQLVESGGGLVQAGGSLRISCAPSGSTFYYNAIGWSRQAPGKERELVARISRSGGSTYADSVKGRFTISRDNAKNTVYLQMNSLKPEDTAVYYCNADAYGTPEFTSYAVRYDYWGQGTQVTVSS | low polyreactivity |
| QVQLVESGGGLVQAGGSLRISSAASGRTFGPYAIGWYRQAPGKESELVAAITSSGGSTYYADSVKGRFTISRDTAKNTFYLQMNSLKPEDTAVYYCNKLYWRESPDYDYWGQGTQVTVSS | low polyreactivity |
| QVQLVESGGGLVQAGGSLRISSAASGRTFQTNVMGWYRQAPGKERELVAAISKTGGRTYYADSVKGRFTISRDNAKNTVYLQMNSLNPEDTAVYYCAADSSGYEDYDYWGQGTQVTVSS | high polyreactivity |
| QVQLVESGGGLVQAGGSLRITCAASGSTFATYTIGWYRQPPGKEMELVAAISVSGSRTYADSVKGRFTISRDNAKNSVYLQMNSLKPEDTAVYYCAPRNYSVASYGEYDYWGQGTQVTVSS | high polyreactivity |
| QVQLVESGGGLVQAGGSLRKSCAASGIIFAYYALGCSRQAPGKERELGAAISSDGSTNYADSVKGRFTISRDNAKNSVYLQMNILKPVDTAVYYCAAKAYLYHWFEMYYWGQGTQVTVSS | high polyreactivity |
| QVQLVESGGGLVQAGGSLRKTCAASVRIFHYYAMGWYRQAPGKERELVAAINKSGGRTYYADSVKGRFTISRDNAKNTFYLQMNSLKPEDTAVYYCAAQDGYLGQGTQVTVSS | high polyreactivity |
| QVQLVESGGGLVQAGGSLRLALLPPDLPSTLNDMGLYRQAPGKERELVAAITRGGSTNYADSVKGRFTISRDNAKNTVYLQMNSLKPEDTADYYCAAPYAGWRDGGDYWGQGTQVTVSS | low polyreactivity |
| QVQLVESGGGLVQAGGSLRLCCAAAGSTFVYYAMGSYRAAPGNERELVAAIRNGDGTNYADSVKGRFTISRDNAKNTVYLQMNSLKPEDTAVYYCAAPQGEYFYVYEFDYWGQGTQVTVSS | low polyreactivity |
| QVQLVESGGGLVQAGGSLRLCCAASGFTFPYNGMGWYRQAPGKERELVASISWSGASTYYADSVKGRFTISRDNAKNTVYLQMNSLKPEDTAVYYCAADPGYYSWGCSQDDYWGQGTQVTVSS | low polyreactivity |
| QVQLVESGGGLVQAGGSLRLCCAASGFTFSYYAMGGYRQAPGKERELVAAISRSGGRTYYADSVKGRFTISRDHAKNTVYVQMNSLKPEDTAVYSCAGVYFGSIFVLEYDYWGQGTQVTVSS | high polyreactivity |
| QVQLVESGGGLVQAGGSLRLCCAASGITFALNAMRWYRQAPGNERELLAAISWSGDSTYYADSVKGRITIARDNAKNTVYLQMNSLKPEDTAVYYCAAVAYLNWTPHYYWGQGTQVTVSS | low polyreactivity |
| QVQLVESGGGLVQAGGSLRLCCAASGSTFTLYAMGWYSQAPGKVRELVAAISWSTTSTYYAHSVKGRFTISRDNAKNTVSLQMNSLKPEDTAVYYCAAELYRAEYDYWGQGTQVTVSS | high polyreactivity |
| QVQLVESGGGLVQAGGSLRLCCAASGSTFYYYAMGWYRQAPGKEREFVASISSRGTSTYYADSVKGRFTISRDNAKNTVYLQLNSLKPEDTAVYYCAARGWGPTRAYDYSGQGTQVTVSS | high polyreactivity |
| QVQLVESGGGLVQAGGSLRLFCAASGRIFSAYAMGLYRQAPGKERELVAGISSRGGSTYYADSVKGRFTISRDNAKNTVYLQMNSLKPEDTAVYYCAKPYGRRYGRLHDYWGQGTQVTVSS | high polyreactivity |

| Sequence | polyreactivity (PSR sort gate) |
| --- | --- |
| QVQLVESGGGLVQAGGSLRLGCAASGGTITSYAMGWYRQAPGKERELVAAITVSGSSTYYADSVKGRFTISRDNAKNTVYLQMNSLKPEDTAVYYCAARWRRFQFDYWGQGTQVTVSS | high polyreactivity |
| QVQLVESGGGLVQAGGSLRLGCAASGITFTPYAMGWYRQAPGKERELVAAISWRGGSTYYADSVKGRFTISRDNAKNTVYLQMNSLKPEDTAVYFCAKDGRGYGRYSRYYTGDYWGQGTQVTVSS | low polyreactivity |
| QVQLVESGGGLVQAGGSLRLICAACGFTLTGYTMGWYRQAPGKERELVAAITSRGGTTYYADSVKGRFTISRDNAKYTVYLQMNSLKPEDTAVYYCNVVYPYLEYDYWGQGTQVTVSS | high polyreactivity |
| QVQLVESGGGLVQAGGSLRLICAASGATFYFYAMGWYREAPGKERELVAAISKRGTSTYYADSVKWRFTISRDNAKNTVYLQLTSLKPEDTAVYFCAADAPRGYNYWGQGTQVTVSS | high polyreactivity |
| QVQLVESGGGLVQAGGSLRLICAASGFIFDWNTMGWYRQAPGKEREMVAAISWSGAGTYYADSVKGRFTISRDNAKNTVYLQMNSLKPEDTAVYYCNAVRANGQASQEGEYWGQGTQVTVSS | high polyreactivity |
| QVQLVESGGGLVQAGGSLRLICAASGFIFRNYARGWYRQAPGKERELVAAITRSGTSTYYADSVKGRFTISRDNAKNTVYLQMNSLKPEDTAVYYCNAGWGLRLSWLGNYWGQGTQVTVSS | high polyreactivity |
| QVQLVESGGGLVQAGGSLRLICAASGFIFTPYAMGWYRQAPGKERELVAAITWRGARTYYADSVKGRFTISRDNAKNTVYLQMNSLKPEDTAVYYCAVAYWNRQSLFRMYYWGQGTQVTVSS | high polyreactivity |
| QVQLVESGGGLVQAGGSLRLICAASGFIFYPYAMGWYRQAPGKERELVAVITSGGRTYYADSVKGRFTISRDNAKNTVYLQMNSLKPEDTAVYYCNADTFQWWDIADVYVIVKYGYWGQGTQVTVSS | low polyreactivity |
| QVQLVESGGGLVQAGGSLRLICAASGFIITRNAMVWYRPAPGKERELGAVISYGGGSTYYADSVKGRFTISRDNAKNTVYLQMNSLKPEDTAVYYCAADPTWRYYYHYTYYYWGQGTQVTVSS | high polyreactivity |
| QVQLVESGGGLVQAGGSLRLICAASGFILKYNAMGWYRQAPGKERELVAAISSNGGRTYYADSVKGRFTISRDNAMNTVYLQMNSLKPVDTAVYYCAAGRLQPVLGGYWGQGTQVTVSS | low polyreactivity |
| QVQLVESGGGLVQAGGSLRLICAASGFTFAYYAMGWYRQAPGKERELVAAISSGGSTYYADSVKGRFTISRDNAKNTVYLQMNSLKPEDTAVYYCAARGGRPLIHHWPWYSWKYDYWGQGTQVTVSS | low polyreactivity |
| QVQLVESGGGLVQAGGSLRLICAASGFTFLTNAMGWYRQAPGKERELVAAISSGGNTNYADSVKGRFTISRDNAKNTVYLQMNSLKPEDTAVYYCAADNDYLSSQVSYYYWGHGTQVTVSS | low polyreactivity |
| QVQLVESGGGLVQAGGSLRLICAASGFTFSVYAMGWYRQAPGKERELVAAITWRGGSTYYADSVKGRFTISRDNAKNTVYLQMNSLKPEDTAVYYCAVLYPKYGKRYGYWGQGTQVTVSS | high polyreactivity |
| QVQLVESGGGLVQAGGSLRLICAASGFTFVANAMGWYRPAPGKERELVAVIDWDEGSTYYADSVKGRFTISRDNAKNTVYLQMNSLKPEETAVYYCNADGYSPDRYDYYYRYYYWGQGTQVTVSS | low polyreactivity |
| QVQLVESGGGLVQAGGSLRLICAASGFTFWNYAMGWYRQAPGKERELVAAITWSGGITYYADSVKGRFTISRDNAKNTVYLQMNSLKPEDTAVYYCAAYPQYQPEWYYIEYDYWGQGTQVTVSS | low polyreactivity |
| QVQLVESGGGLVQAGGSLRLICAASGFTFYLYTMGWYRQAPGKERELVAAISWRGGGTYYADSVKGRFTISRDNAKNTVYLQMNSLKPEDTEVYYCAAYWRRRLVYYYWGQGTQVTVSS | high polyreactivity |
| QVQLVESGGGLVQAGGSLRLICAASGFTFYYKAMGWYRPAHGKERELVAAISTGGSTYYADSVKGRFTISRDNAKNTVYLQMNSLKPEDTAVYYCARSLWTGGYGYYYWGQGTQVTVSS | high polyreactivity |
| QVQLVESGGGLVQAGGSLRLICAASGFTLGSNAMGWYRQAPGKERELVAAMSKSGGSTYYADSVKGRFTISRDNAKNTVYLQMNSLKPEDTAVYYCAARYLYQGYRYDYWGQGTQVTVSS | high polyreactivity |
| QVQLVESGGGLVQAGGSLRLICAASGGIFGINAMGWYRPSPVKERELVAAINLSGGRTYYADSVKGRFTISRDNAKKTVYLLMNSLKPEDSAVYYCAAYYGYSLYGHYEYWGQGTQVTVSS | high polyreactivity |
| QVQLVESGGGLVQAGGSLRLICAASGGIFGSYAMGWYRQAPGKEREFVAAIRYGSGSTYYADSVKGRFTISRDNAKNTVYLQMNSLKPEDTAVYYCATEYWGVYGYGFIYDYWGQGTQVTVSS | low polyreactivity |
| QVQLVESGGGLVQAGGSLRLICAASGGTFYDYAMGWYRQAPGKERELVAAISASGDSTYYADSVKGRFTISRDNAKNTVYLQMNSLKPEDTAVYSCAAEFTAFDGFDYWGQGTQVTVSS | low polyreactivity |

From the nanobody polyreactivity screen of Harvey et al. (2022)
